Results taken from patent US10487308B2, “Culture medium composition” (NISSAN CHEMICAL CORPORATION, priority 2014, dated 2019).

Assay: Viscosity measurement and state of medium composition
Assay type: physicochemical
Conditions: for viscosity: 37° C., 100 rpm
Method: Deacylated gellan gum (KELCOGEL CG-LA, manufactured by SANSHO Co., Ltd.) was suspended in pure water to 0.4% (w/v), and dissolved by stirring with heating at 90° C. This aqueous solution was allowed to cool to room temperature with stirring, and sterilized at 121° C. for 20 min in an autoclave. A 2-fold concentration of DMEM/F-12 medium (manufactured by Aldrich, 50 mL) and sterilization water (47.5 mL) were placed in a 300 mL tall beaker with stirring by a homomixer (3000 rpm) at room temperature, aqueous deacylated gellan gum solution (2.5 mL) was added, and the mixture was continuously stirred for 1 min to prepare a deacylated gellan gum medium composition with a final concentration of 0.01%. Medium compositions added with aqueous deacylated gellan gum solution with final concentrations of 0.02, 0.03 and 0.05% (w/v) were similarly prepared. The viscosity of the medium compositions was measured using an E type viscometer (manufactured by Toki Sangyo Co., Ltd., Viscometer TVE-22 L, standard roter 1° 34′×R24) under 37° C. condition at 100 rpm for 5 min.
The medium compositions prepared above were subjected to a suspension test of HeLa cell spheres and a viscosity measurement, in the same manner as with the deacylated gellan gum-containing medium. The viscosity of 1.0% (w/v) methylcellulose was measured at 50 rpm due to the measurement range of the apparatus.
In the same manner as in Reference Experimental Example 2, spheres of HeLa cells were formed, and several tens of the spheres were added to each medium (1 mL) prepared above, the mixture was stood still at 37° C. for 1 hr, and the suspended state of the sphere cells was visually observed. […] Furthermore, it was confirmed that addition of an equal amount of the medium to the cell suspension and centrifugation (300 to 400G, for 5 min) thereof result in sedimentation and recovery of the spheres of HeLa cells.
By a method similar to that for the polysaccharide mixture of Reference Experimental Example 9, DMEM/F-12 media containing deacylated gellan gum at a final concentration of 0.005, 0.01% (w/v) and other polysaccharide were prepared. The final concentration of polysaccharide was set to 0.1% (w/v) for xanthan gum, sodium alginate, locust bean gum, 0.2% (w/v) for methylcellulose, and 0.05% (w/v) for K-carageenan and diutan gum. The state of each medium composition and the viscosity measured by a method similar to that in Analysis Example 1 are shown in Tables 11-16.

Substance: collagen
- state (0.01% (w/v) in DMEM/F-12): liquid
- state (0.05% (w/v) in DMEM/F-12): liquid/solid
- viscosity (0.05% (w/v) in DMEM/F-12): unmeasurable
- state (0.1% (w/v) in DMEM/F-12): solid (gel)
- viscosity (0.1% (w/v) in DMEM/F-12): unmeasurable
- state (0.2% (w/v) in DMEM/F-12): solid (gel)
- viscosity (0.2% (w/v) in DMEM/F-12): unmeasurable
